Test results as given in patent US20210253718A1, “FRIZZLED5 PROTEIN-BINDING AGENTS” (Modmab Therapeutics Corporation, priority 2016, published 2021).

Columns and labels:
Experiment in all cases: Immunofluorescence of anti-FZD5 Fab binding to CHO cells overexpressing Frizzled CRD
Parameters in all cases: key: −: no binding; +: very weak binder; ++: weak binder; +++: good binder; ++++: very good binder
[1] = molecular target: T1, FZD2 CRD (Homo sapiens, UniProt Q14332)
T1 construct: D35-P161; GPI anchor signal (C); expressed in transfected cells; host or cells: CHO cells, lentiviral pLenti-puro
Procedure: (§1) Plasmids: pLCKO lentiviral vector used for knockout (TKO) library construction and expression of individual gRNAs was constructed as described previously (Hart et al., 2015). Briefly, single guide RNA (sgRNA) scaffold was amplified from px330 (Addgene 42230) and cloned into pLKO.TRC005 lentiviral vector (Broad Institute, Cambridge, Mass.) using AgeI/EcoRI restriction sites. BfuAI sites were added at the 5′ end of the sgRNA scaffold for cloning the TKO library or individual gRNA target sequences. Lenti Cas9-2A-BsdR vector used to generate Cas9 stable expression cell lines was constructed as described previously (Hart et al., 2015). Briefly, lentiCRISPR pXPR_001 (Addgene 49535) was modified through removal of the sgRNA scaffold region through NdeI/EcoRI digest and blunt ends generation using Large Klenow Fragment (NEB). 2A-puro was replaced with 2A-BsdR by PCR using the NheI/MluI sites. Each of the 10 human Frizzled cysteine rich domains (CRDs) were cloned into the lentiviral expression plasmid pLenti-puro in the following cassette: FZD_CRD-MYC-GPI.
(§2) To confirm that the FZD5-WNT7B circuit is not driven simply by expression and rule out the possibility of a disconnect between RNA and protein levels for the Wnt receptors in HPAF-II cells, a panel of recombinant Fabs were generated, alternatively referred to herein as ‘Frizzled profiler’, that can detect and discriminate all but one of the ten Frizzled receptors. […] To characterize the binding specificity of these Fabs on cells, a panel of 10 CHO cell lines was generated, each expressing the CRD domain of a different myc-tagged Frizzled family member anchored at the plasma membrane through a GPI anchor (CHO-myc-FZDGPI). Despite the high sequence identity between Frizzled family members (FIG. 7A, FIG. 7B), selective Fabs were identified for FZD4, FZD5, FZD6 and FZD10 as assessed by immunofluorescence and flow cytometry (FIG. 7D and FIG. 8). […] The FZD8 CRD is most homologous to that of FZD5 (FIG. 7B). These Fabs can be used to discriminate expression of FZD1, FZD2, FZD4, FZD5, FZD6, FZD7, FZD8, FZD9 and FZD10 (FIG. 7D and FIG. 8). The ‘Frizzled profiler’ therefore consists of 10 different Fabs that can be used to discriminate expression of 9 different Frizzled family members. The Frizzled profiler was then used to confirm that HPAF-II cells express FZD1, FZD5, FZD6 and possibly FZD8 (FIG. 7E).
(§3) The binding of anti-FZD5 Fabs to cell surface-expressed Frizzled protein was further determined for each member of the Frizzled family via flow cytometry and immunofluorescence analysis of a panel of 10 CHO cell lines, each ectopically over-expressing the extracellular cysteine-rich domain (CRD) of a different Frizzled protein family member.

[2] = molecular target: T2, FZD1 CRD (Homo sapiens, UniProt Q9UP38)
T2 construct: D112-P238; GPI anchor signal (C); expressed in transfected cells; host or cells: CHO cells, lentiviral pLenti-puro
Procedure: as §1, §2, §3

[3] = molecular target: T3, FZD6 CRD (Homo sapiens, UniProt O60353)
T3 construct: S20-P146; GPI anchor signal (C); expressed in transfected cells; host or cells: CHO cells, lentiviral pLenti-puro
T3 sequence (O60353 20-146): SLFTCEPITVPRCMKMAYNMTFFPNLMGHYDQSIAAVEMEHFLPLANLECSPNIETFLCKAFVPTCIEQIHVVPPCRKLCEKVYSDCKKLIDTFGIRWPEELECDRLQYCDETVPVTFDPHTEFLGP
Procedure: as §1, §2, §3

[4] = molecular target: T4, FZD7 CRD (Homo sapiens, UniProt O75084)
T4 construct: D45-S169; GPI anchor signal (C); expressed in transfected cells; host or cells: CHO cells, lentiviral pLenti-puro
Procedure: as §1, §2, §3

[5] = molecular target: T5, FZD9 CRD (Homo sapiens, UniProt O00144)
T5 construct: G35-A161; GPI anchor signal (C); expressed in transfected cells; host or cells: CHO cells, lentiviral pLenti-puro
T5 sequence (O00144 35-161): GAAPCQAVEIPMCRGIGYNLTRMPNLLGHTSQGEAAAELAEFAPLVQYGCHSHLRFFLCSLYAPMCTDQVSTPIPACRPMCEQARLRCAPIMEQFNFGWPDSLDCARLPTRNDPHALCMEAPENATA
Procedure: as §1, §2, §3

[6] = molecular target: T6, FZD5 CRD (Homo sapiens, UniProt Q13467)
T6 construct: K29-T156; GPI anchor signal (C); expressed in transfected cells; host or cells: CHO cells, lentiviral pLenti-puro
T6 sequence (Q13467 29-156): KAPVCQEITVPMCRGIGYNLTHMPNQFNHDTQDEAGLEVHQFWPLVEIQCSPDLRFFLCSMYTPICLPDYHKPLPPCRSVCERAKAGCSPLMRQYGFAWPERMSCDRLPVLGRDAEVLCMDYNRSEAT
Procedure: as §1, §2, §3

[7] = molecular target: T7, FZD4 CRD (Homo sapiens, UniProt Q9ULV1)
T7 construct: E42-V167; GPI anchor signal (C); expressed in transfected cells; host or cells: CHO cells, lentiviral pLenti-puro
T7 sequence (Q9ULV1 42-167): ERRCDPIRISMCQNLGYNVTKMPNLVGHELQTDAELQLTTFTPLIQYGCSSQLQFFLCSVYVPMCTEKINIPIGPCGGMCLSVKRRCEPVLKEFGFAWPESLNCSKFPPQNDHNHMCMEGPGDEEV
Procedure: as §1, §2, §3

Fab-2931: anti-FZD5 Fab with antibody variable region Fv-2931; CDR SEQ ID NOs: 35, 36, 70, 102, 146, 176 (CDR 1 QSVSSA; CDR 2 SAS; CDR 3 QQSSYSLIT; CDR 4 GFNLSYSS; CDR 5 ISPYSGST; CDR 6 ARGSYWYVGGGWWVSGHGGMDY)
Immunofluorescence binding, Frizzled CRD overexpressed on CHO cells: FZD2 [1]: + | Immunofluorescence binding, Frizzled CRD overexpressed on CHO cells: FZD1 [2]: − | Immunofluorescence binding, Frizzled CRD overexpressed on CHO cells: FZD6 [3]: − | Immunofluorescence binding, Frizzled CRD overexpressed on CHO cells: FZD7 [4]: + | Immunofluorescence binding, Frizzled CRD overexpressed on CHO cells: FZD9 [5]: − | Immunofluorescence binding, Frizzled CRD overexpressed on CHO cells: FZD5 [6]: ++++ | Immunofluorescence binding, Frizzled CRD overexpressed on CHO cells: FZD4 [7]: −
